Data: patent US20040018957A1, “Crystal structure of a Ras-P13K complex” (priority 2000, published 2004)

target: T1, N-Ras.mant-GMPPNP (Homo sapiens, UniProt P01111); assay: Fluorescence anisotropy titration of PI3Kγ 144-1102 into N-Ras.mant-GMPPNP; format: binding; settings: mutants in the 144-1102 construct, FIG. 2A
T1 construct: fluorescence anisotropy of full length, unmodified N-Ras.mant-GMPPNP
Method: Mant-nucleotides were synthesised as described previously (Jameson and Eccleston, 1997). N-Ras and H-Ras mutants were loaded with mant-GMPPNP as in (Moore et al., 1993), gel filtered into running buffer (20 mM Tris pH 7.5, 2 mM MgCl2, 1 mM DTT), and frozen at −80° C. The concentration of Ras.mant-GMPPNP was determined by measuring the absorbance of the mant group at […] with ε=5700 M^−1 cm^−1 (Hiratsuka, 1983). For binding assays, the 144-1102 human PI3Kγ was titrated into a 1 μM solution of fill length, unmodified N-Ras.mant-GMPPNP. Data were collected with SLM 8000 S and ISS PC1 spectrofluorimeters, set up in the T-format and L-format, respectively, with prism polarizers. All measurements were taken at 20° C. with a λex of 366 nm. Both emission PMTs were fitted with 399 nm cutoff filters. Five measurements of each data point were obtained and averaged. Data were fitted to the binding equation.

T1 sequence (P01111 whole entry): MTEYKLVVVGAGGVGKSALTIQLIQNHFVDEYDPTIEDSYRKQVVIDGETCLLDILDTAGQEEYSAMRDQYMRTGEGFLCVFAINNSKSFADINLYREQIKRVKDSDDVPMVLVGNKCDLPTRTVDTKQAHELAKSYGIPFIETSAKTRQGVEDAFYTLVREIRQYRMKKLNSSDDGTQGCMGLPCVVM

| Molecule | effect of PI3Kγ RBD mutation on binding to Ras |
| --- | --- |
| E267K: tighter-binding PI3Kγ mutant (protein, UniProt P48736 1-1102, looked up, variant E267K) Phosphatidylinositol …: MELENYKQPVVLREDNCRRRRRMKPRSAAASLSSMELIPIEFVLPTSQRKCKSPETALLHVAGHGNVEQMKAQVWLRALETSVAADFYHRLGPHHFLLLYQKKGQWYEIYDKYQVVQTLDCLRYWKATHRSPGQIHLVQRHPPSEESQAFQRQLTALIGYDVTDVSNVHDDELEFTRRGLVTPRMAEVASRDPKLYAMHPWVTSKPLPEYLWKKIANNCIFIVIHRSTTSQTIKVSPDDTPGAILQSFFTKMAKKKSLMDIPESQSKQDFVLRVCGRDEYLVGETPIKNFQWVRHCLKNGEEIHVVLDTPPDPALDEVRKEEWPLVDDCTGVTGYHEQLTIHGKDHESVFTVSLWDCDRKFRVKIRGIDIPVLPRNTDLTVFVEANIQHGQQVLCQRRTSPKPFTEEVLWNVWLEFSIKIKDLPKGALLNLQIYCGKAPALSSKASAESPSSESKGKVQLLYYVNLLLIDHRFLLRRGEYVLHMWQISGKGEDQGSFNADKLTSATNPDKENSMSISILLDNYCHPIALPKHQPTPDPEGDRVRAEMPNQLRKQLEAIIATDPLNPLTAEDKELLWHFRYESLKHPKAYPKLFSSVKWGQQEIVAKTYQLLARREVWDQSALDVGLTMQLLDCNFSDENVRAIAVQKLESLEDDDVLHYLLQLVQAVKFEPYHDSALARFLLKRGLRNKRIGHFLFWFLRSEIAQSRHYQQRFAVILEAYLRGCGTAMLHDFTQQVQVIEMLQKVTLDIKSLSAEKYDVSSQVISQLKQKLENLQNSQLPESFRVPYDPGLKAGALAIEKCKVMASKKKPLWLEFKCADPTALSNETIGIIFKHGDDLRQDMLILQILRIMESIWETESLDLCLLPYGCISTGDKIGMIEIVKDATTIAKIQQSTVGNTGAFKDEVLNHWLKEKSPTEEKFQAAVERFVYSCAGYCVATFVLGIGDRHNDNIMITETGNLFHIDFGHILGNYKSFLGINKERVPFVLTPDFLFVMGTSGKKTSPHFQKFQDICVKAYLALRHHTNLLIILFSMMLMTGMPQLTSKEDIEYIRDALTVGKNEEDAKKYFLDQIEVCRDKGWTVQFNWFLHLVLGIKQGEKHSA | tighter-binding |
| K256A: PI3Kγ RBD mutant (protein, UniProt P48736 1-1102, looked up, variant K256A) Phosphatidylinositol …: MELENYKQPVVLREDNCRRRRRMKPRSAAASLSSMELIPIEFVLPTSQRKCKSPETALLHVAGHGNVEQMKAQVWLRALETSVAADFYHRLGPHHFLLLYQKKGQWYEIYDKYQVVQTLDCLRYWKATHRSPGQIHLVQRHPPSEESQAFQRQLTALIGYDVTDVSNVHDDELEFTRRGLVTPRMAEVASRDPKLYAMHPWVTSKPLPEYLWKKIANNCIFIVIHRSTTSQTIKVSPDDTPGAILQSFFTKMAKKASLMDIPESQSEQDFVLRVCGRDEYLVGETPIKNFQWVRHCLKNGEEIHVVLDTPPDPALDEVRKEEWPLVDDCTGVTGYHEQLTIHGKDHESVFTVSLWDCDRKFRVKIRGIDIPVLPRNTDLTVFVEANIQHGQQVLCQRRTSPKPFTEEVLWNVWLEFSIKIKDLPKGALLNLQIYCGKAPALSSKASAESPSSESKGKVQLLYYVNLLLIDHRFLLRRGEYVLHMWQISGKGEDQGSFNADKLTSATNPDKENSMSISILLDNYCHPIALPKHQPTPDPEGDRVRAEMPNQLRKQLEAIIATDPLNPLTAEDKELLWHFRYESLKHPKAYPKLFSSVKWGQQEIVAKTYQLLARREVWDQSALDVGLTMQLLDCNFSDENVRAIAVQKLESLEDDDVLHYLLQLVQAVKFEPYHDSALARFLLKRGLRNKRIGHFLFWFLRSEIAQSRHYQQRFAVILEAYLRGCGTAMLHDFTQQVQVIEMLQKVTLDIKSLSAEKYDVSSQVISQLKQKLENLQNSQLPESFRVPYDPGLKAGALAIEKCKVMASKKKPLWLEFKCADPTALSNETIGIIFKHGDDLRQDMLILQILRIMESIWETESLDLCLLPYGCISTGDKIGMIEIVKDATTIAKIQQSTVGNTGAFKDEVLNHWLKEKSPTEEKFQAAVERFVYSCAGYCVATFVLGIGDRHNDNIMITETGNLFHIDFGHILGNYKSFLGINKERVPFVLTPDFLFVMGTSGKKTSPHFQKFQDICVKAYLALRHHTNLLIILFSMMLMTGMPQLTSKEDIEYIRDALTVGKNEEDAKKYFLDQIEVCRDKGWTVQFNWFLHLVLGIKQGEKHSA | reduce binding by up to an order of magnitude |
| Lys-254: PI3Kγ mutant, Lys-254 mutated to Ala (protein, UniProt P48736 1-1102, looked up, variant K254A) Phosphatidylinositol …: MELENYKQPVVLREDNCRRRRRMKPRSAAASLSSMELIPIEFVLPTSQRKCKSPETALLHVAGHGNVEQMKAQVWLRALETSVAADFYHRLGPHHFLLLYQKKGQWYEIYDKYQVVQTLDCLRYWKATHRSPGQIHLVQRHPPSEESQAFQRQLTALIGYDVTDVSNVHDDELEFTRRGLVTPRMAEVASRDPKLYAMHPWVTSKPLPEYLWKKIANNCIFIVIHRSTTSQTIKVSPDDTPGAILQSFFTKMAAKKSLMDIPESQSEQDFVLRVCGRDEYLVGETPIKNFQWVRHCLKNGEEIHVVLDTPPDPALDEVRKEEWPLVDDCTGVTGYHEQLTIHGKDHESVFTVSLWDCDRKFRVKIRGIDIPVLPRNTDLTVFVEANIQHGQQVLCQRRTSPKPFTEEVLWNVWLEFSIKIKDLPKGALLNLQIYCGKAPALSSKASAESPSSESKGKVQLLYYVNLLLIDHRFLLRRGEYVLHMWQISGKGEDQGSFNADKLTSATNPDKENSMSISILLDNYCHPIALPKHQPTPDPEGDRVRAEMPNQLRKQLEAIIATDPLNPLTAEDKELLWHFRYESLKHPKAYPKLFSSVKWGQQEIVAKTYQLLARREVWDQSALDVGLTMQLLDCNFSDENVRAIAVQKLESLEDDDVLHYLLQLVQAVKFEPYHDSALARFLLKRGLRNKRIGHFLFWFLRSEIAQSRHYQQRFAVILEAYLRGCGTAMLHDFTQQVQVIEMLQKVTLDIKSLSAEKYDVSSQVISQLKQKLENLQNSQLPESFRVPYDPGLKAGALAIEKCKVMASKKKPLWLEFKCADPTALSNETIGIIFKHGDDLRQDMLILQILRIMESIWETESLDLCLLPYGCISTGDKIGMIEIVKDATTIAKIQQSTVGNTGAFKDEVLNHWLKEKSPTEEKFQAAVERFVYSCAGYCVATFVLGIGDRHNDNIMITETGNLFHIDFGHILGNYKSFLGINKERVPFVLTPDFLFVMGTSGKKTSPHFQKFQDICVKAYLALRHHTNLLIILFSMMLMTGMPQLTSKEDIEYIRDALTVGKNEEDAKKYFLDQIEVCRDKGWTVQFNWFLHLVLGIKQGEKHSA | greatly lowers the affinity |
| D260A: PI3Kγ RBD mutant (protein, UniProt P48736 1-1102, looked up, variant D260A) Phosphatidylinositol …: MELENYKQPVVLREDNCRRRRRMKPRSAAASLSSMELIPIEFVLPTSQRKCKSPETALLHVAGHGNVEQMKAQVWLRALETSVAADFYHRLGPHHFLLLYQKKGQWYEIYDKYQVVQTLDCLRYWKATHRSPGQIHLVQRHPPSEESQAFQRQLTALIGYDVTDVSNVHDDELEFTRRGLVTPRMAEVASRDPKLYAMHPWVTSKPLPEYLWKKIANNCIFIVIHRSTTSQTIKVSPDDTPGAILQSFFTKMAKKKSLMAIPESQSEQDFVLRVCGRDEYLVGETPIKNFQWVRHCLKNGEEIHVVLDTPPDPALDEVRKEEWPLVDDCTGVTGYHEQLTIHGKDHESVFTVSLWDCDRKFRVKIRGIDIPVLPRNTDLTVFVEANIQHGQQVLCQRRTSPKPFTEEVLWNVWLEFSIKIKDLPKGALLNLQIYCGKAPALSSKASAESPSSESKGKVQLLYYVNLLLIDHRFLLRRGEYVLHMWQISGKGEDQGSFNADKLTSATNPDKENSMSISILLDNYCHPIALPKHQPTPDPEGDRVRAEMPNQLRKQLEAIIATDPLNPLTAEDKELLWHFRYESLKHPKAYPKLFSSVKWGQQEIVAKTYQLLARREVWDQSALDVGLTMQLLDCNFSDENVRAIAVQKLESLEDDDVLHYLLQLVQAVKFEPYHDSALARFLLKRGLRNKRIGHFLFWFLRSEIAQSRHYQQRFAVILEAYLRGCGTAMLHDFTQQVQVIEMLQKVTLDIKSLSAEKYDVSSQVISQLKQKLENLQNSQLPESFRVPYDPGLKAGALAIEKCKVMASKKKPLWLEFKCADPTALSNETIGIIFKHGDDLRQDMLILQILRIMESIWETESLDLCLLPYGCISTGDKIGMIEIVKDATTIAKIQQSTVGNTGAFKDEVLNHWLKEKSPTEEKFQAAVERFVYSCAGYCVATFVLGIGDRHNDNIMITETGNLFHIDFGHILGNYKSFLGINKERVPFVLTPDFLFVMGTSGKKTSPHFQKFQDICVKAYLALRHHTNLLIILFSMMLMTGMPQLTSKEDIEYIRDALTVGKNEEDAKKYFLDQIEVCRDKGWTVQFNWFLHLVLGIKQGEKHSA | reduce binding by up to an order of magnitude |
| R226A: PI3Kγ RBD mutant (protein, UniProt P48736 1-1102, looked up, variant R226A) Phosphatidylinositol …: MELENYKQPVVLREDNCRRRRRMKPRSAAASLSSMELIPIEFVLPTSQRKCKSPETALLHVAGHGNVEQMKAQVWLRALETSVAADFYHRLGPHHFLLLYQKKGQWYEIYDKYQVVQTLDCLRYWKATHRSPGQIHLVQRHPPSEESQAFQRQLTALIGYDVTDVSNVHDDELEFTRRGLVTPRMAEVASRDPKLYAMHPWVTSKPLPEYLWKKIANNCIFIVIHASTTSQTIKVSPDDTPGAILQSFFTKMAKKKSLMDIPESQSEQDFVLRVCGRDEYLVGETPIKNFQWVRHCLKNGEEIHVVLDTPPDPALDEVRKEEWPLVDDCTGVTGYHEQLTIHGKDHESVFTVSLWDCDRKFRVKIRGIDIPVLPRNTDLTVFVEANIQHGQQVLCQRRTSPKPFTEEVLWNVWLEFSIKIKDLPKGALLNLQIYCGKAPALSSKASAESPSSESKGKVQLLYYVNLLLIDHRFLLRRGEYVLHMWQISGKGEDQGSFNADKLTSATNPDKENSMSISILLDNYCHPIALPKHQPTPDPEGDRVRAEMPNQLRKQLEAIIATDPLNPLTAEDKELLWHFRYESLKHPKAYPKLFSSVKWGQQEIVAKTYQLLARREVWDQSALDVGLTMQLLDCNFSDENVRAIAVQKLESLEDDDVLHYLLQLVQAVKFEPYHDSALARFLLKRGLRNKRIGHFLFWFLRSEIAQSRHYQQRFAVILEAYLRGCGTAMLHDFTQQVQVIEMLQKVTLDIKSLSAEKYDVSSQVISQLKQKLENLQNSQLPESFRVPYDPGLKAGALAIEKCKVMASKKKPLWLEFKCADPTALSNETIGIIFKHGDDLRQDMLILQILRIMESIWETESLDLCLLPYGCISTGDKIGMIEIVKDATTIAKIQQSTVGNTGAFKDEVLNHWLKEKSPTEEKFQAAVERFVYSCAGYCVATFVLGIGDRHNDNIMITETGNLFHIDFGHILGNYKSFLGINKERVPFVLTPDFLFVMGTSGKKTSPHFQKFQDICVKAYLALRHHTNLLIILFSMMLMTGMPQLTSKEDIEYIRDALTVGKNEEDAKKYFLDQIEVCRDKGWTVQFNWFLHLVLGIKQGEKHSA | reduce binding by up to an order of magnitude |
